Reference: patent US20240084003A1 (SIMCERE ZAIMING PHARMACEUTICAL, published 2024)
Changes are numbered by the printed parent chain.

T1: murine CD22 protein (ACROBiosystems, SI2-M52Ha) (murine, UniProt P35329 22-708)
T1 construct: extracellular domain; also called murine CD22-ECD; murine CD22-ECD-His
T1 sequence (looked up): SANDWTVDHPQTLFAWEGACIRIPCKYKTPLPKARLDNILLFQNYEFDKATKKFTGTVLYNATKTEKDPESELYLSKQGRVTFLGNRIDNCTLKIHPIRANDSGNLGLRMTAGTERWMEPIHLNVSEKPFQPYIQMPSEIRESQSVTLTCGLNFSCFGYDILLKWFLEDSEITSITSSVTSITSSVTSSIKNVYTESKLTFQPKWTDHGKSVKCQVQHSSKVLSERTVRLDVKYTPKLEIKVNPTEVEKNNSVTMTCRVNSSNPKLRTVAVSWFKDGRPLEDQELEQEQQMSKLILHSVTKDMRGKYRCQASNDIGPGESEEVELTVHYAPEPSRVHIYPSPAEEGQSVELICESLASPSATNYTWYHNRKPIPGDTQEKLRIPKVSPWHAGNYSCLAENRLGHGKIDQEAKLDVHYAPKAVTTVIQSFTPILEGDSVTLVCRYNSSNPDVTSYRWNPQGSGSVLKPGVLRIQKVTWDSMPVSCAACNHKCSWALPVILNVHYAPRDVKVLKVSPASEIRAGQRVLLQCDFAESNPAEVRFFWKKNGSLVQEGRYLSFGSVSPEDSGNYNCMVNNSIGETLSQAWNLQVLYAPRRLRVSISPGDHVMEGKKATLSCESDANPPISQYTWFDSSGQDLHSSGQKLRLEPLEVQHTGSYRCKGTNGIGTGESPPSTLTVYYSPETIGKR

T2: human CD22-ECD-His protein (human, UniProt P20273 20-687)
T2 construct: Made in house in HEK293E; also called hCD22-ECD-His; recombinant human CD22-ECD His protein; not shown: His tag
T2 sequence: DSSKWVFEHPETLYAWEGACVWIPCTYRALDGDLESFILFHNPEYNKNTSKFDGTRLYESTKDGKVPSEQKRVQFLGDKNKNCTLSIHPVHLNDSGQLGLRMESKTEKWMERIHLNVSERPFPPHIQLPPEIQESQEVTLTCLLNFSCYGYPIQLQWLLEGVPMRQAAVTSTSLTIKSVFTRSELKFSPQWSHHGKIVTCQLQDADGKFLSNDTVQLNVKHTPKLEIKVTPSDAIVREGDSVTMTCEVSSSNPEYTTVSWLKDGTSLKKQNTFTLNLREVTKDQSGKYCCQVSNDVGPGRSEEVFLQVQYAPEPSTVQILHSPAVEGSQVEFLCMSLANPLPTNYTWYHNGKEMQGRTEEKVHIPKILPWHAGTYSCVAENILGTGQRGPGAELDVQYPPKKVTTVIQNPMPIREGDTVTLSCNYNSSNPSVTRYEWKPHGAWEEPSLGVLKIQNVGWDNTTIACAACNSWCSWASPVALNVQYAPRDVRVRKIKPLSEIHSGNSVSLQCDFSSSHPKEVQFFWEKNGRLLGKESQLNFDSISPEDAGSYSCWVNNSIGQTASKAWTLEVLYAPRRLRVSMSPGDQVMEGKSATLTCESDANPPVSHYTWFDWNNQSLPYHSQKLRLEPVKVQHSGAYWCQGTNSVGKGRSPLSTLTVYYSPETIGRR

B1: F1.280.1 (antibody, human IgG1, kappa, V domains shown)
VH: QIQLVQSGPELKKPGETVKISCKASGYTFTTYGMSWVKQTPGKGLTWMGWINTDSGVPTYADDFKRRFAFSLEASATTAYLQINNLKNEDTATYFCARGGPDYWGQGTTLTVSS
VL: DILLTQSPATLSVTPGETVSLSCRASQSIYKNLHWYHQKSHRSPRLLIKYASDSISGIPSRFTGSGSGTNFTLSINSVKPEDEGIYYCLQGYIVPLTFGAGTKLELKR
notes: Human-murine chimeric IgG1, kappa
B2: F1.216.2 (antibody, human IgG1, kappa, V domains shown)
VH: QVQLQQSGPEVVRPGASVKISCKASGYAFSSSWMNWMKQRPGKALEWIGRIYPGDGDTNYSGEFKVKATLTADKSSSTAYMQLSSLTSEDSAVYFCAREGSYYSNPWYFDYWGQGTTLTVSS
VL: DVLVTQTPLSLPVSLGDQASISCRSSQSIVQSNGDTYLEWYLQKPGQSPKLLIYKVSNRFSGVPDRFSGSGSGTDFTLKISRVEAEDLGVYYCFQGSHVPFTFGSGTKLEIKR
notes: as for B1
B3: F1.245.2 (antibody, human IgG1, kappa, V domains shown)
VH: EVQLQQSGAELVKPGASVKLSCTGSGFNIKDYYIHWVKQRTEQGLEWMGRIDPEDGETEYAPKFQDEATITSDTSSNTAYLQLSSLTYEDTAVYYCAREAAGYFYRGSSYGYFDVWGTGTTVTVSS
VL: DFQMTQTTSFLSASLGDRVTISCSASQDISNYLNWYQQKPDGTVKLLIYYTSSLHSGVPSRFSGSGSGTDYSLTISNLEPEDIATYYCQQYSMLPYTFGGGTKLEMER
notes: as for B1
B4: F2.55.1 (antibody, human IgG1, lambda, V domains shown)
VH: QVTLKESGPGILQPSQTLSLTCSFSGFSLSTFPLGVGWIRQPSGKGLEWLAHVWWNDDDYYNPALKSRLTISKDTSNTRVFLSVASVDTAETATYYCARLNWDRWYFDVWGTGTTVTVSS
VL: QLVLTQSSSASFSLGASAKLTCTLSSQHSAYTVEWYQQQPLKPPKYVMELKKDGSHSTGDGIPDRFSGSSSGADRYLSISNIQPEDEAIYICGVGDTVKEQFVFGGGTKVTVLG
notes: Human-murine chimeric IgG1, lambda
B5: F1.257.3 (antibody, human IgG1, kappa, V domains shown)
VH: QVQLQQSGPELARPGASVKLSCKASGYTFTSYGISWVKQRTGQDLEWIGEIYPKLGTTYYNEKFKDKATLTTDRSSSTAYMALRSLTSEDSAVYFCACPHYYATRGGDYWGQGTTLTVSS
VL: EIVLTQSPATLSVTPGDSVTFSCRASQSISNHLHWYQQKSHESPRLLIRYASQSISGIPSRFSGSGSGTDFTLSLSSVETEDFGVYFCQQSHSWPYTFGGGTKLEIAR
notes: as for B1
B6: HA22-hIgG1 (antibody, V domains shown)
VH: EVQLVESGGGLVKPGGSLKLSCAASGFAFSIYDMSWVRQTPEKCLEWVAYISSGGGTTYYPDTVKGRFTISRDNAKNTLYLQMSSLKSEDTAMYYCARHSGYGTHWGVLFAYWGQGTLVTVSA
VL: DIQMTQTTSSLSASLGDRVTISCRASQDISNYLNWYQQKPDGTVKLLIYYTSILHSGVPSRFSGSGSGTDYSLTISNLEQEDFATYFCQQGNTLPWTFGCGTKLEIKR
B7: F1.120.15 (antibody, human IgG1, kappa, V domains shown)
VH: QVQLQQSGPELVKPGASVKISCKASGNAFSNSWMNWVKQRPGKGLEWIGRVYSEDGDTQYNGKFRDKATLTADRSTSTAYMQLSSLTSEDSAVYFCARWLIYYGTYGAMDYWGQGTSVTVSS
VL: B6 VL with S30N, Q37H, Y50F, I53R, L54P, H55Y, F83I, C100G
notes: as for B1
B8: F1.200.11 (antibody, human IgG1, kappa, V domains shown)
VH: QNQLVQSGPELKKPGETVKISCKASGYTFTTAGMQWVQKMPGKGFKWIGWINTLSGEPKYAEDFKGRFAFSLETSATTAYLQISNLKNEDTATYFCARAYYSNLYWYFDVWGTGTTVTVSS
VL: DIVMTQSQKFMSTTVGDRVTITCKASQNVVTAVAWYQQKPGQSPKVLIYSASNRYSGVPDRFTGSGSGTDFTLTISNMHSEDLANYFCHQYSSYPFTFGSGTKLEIKR
notes: as for B1
B9: F1.224.1 (antibody, human IgG1, kappa, V domains shown)
VH: EVLLHQSGPELVKPGASVKISCKASGYTFTDFNMDWVRQRHGQSLEWIGDVNPNNGGTIYNQKFKGKATLTVDKSSSTVYMDLRSLTSDDTAVYYCVRLGTSDYGEAWFISWGQGTVVTVSA
VL: DIVLTQSPASLAVSLGQRATISCRASQSVSTPRYSFMHWYQQKPGQPPKLLIKYASNLESGFPARFTGSGSGTDFTLNIHPVEEEDTAAYYCQQSWAIPWTFGGGTKLEIKR
notes: as for B1
B10: F2.70.2 (antibody, human IgG1, lambda, V domains shown)
VH: EVQLVESGGGLVKPGGSLKLSCAASGFTFSDYGMNWFRQAPEKGLEWVAYISRGSHTIYYADTVKGRFTISRDNAKNTLFLQMTSLRSNDTAMYYCVRMAGYYAMDYWGQGTSVTVSS
VL: QLVLTQSSSASFSLGASAKLTCTLSSQHSSYIIEWYQQQPLKPPKYVMELKKDGSHSTGDGIPDRFSGSSSGADRYLSISNIQPEDEAIYICGVGDTIKEQFVYVFGGGTKVTVLG
notes: as for B4
B11: F2.104.10 (antibody, human IgG1, lambda, V domains shown)
VH: B10 VH with L11F, K76E, V114L
VL: B10 VL with L50V, P84S
notes: as for B4
B12: F2.205.9 (antibody, human IgG1, lambda, V domains shown)
VH: QVTLKESGPGILQPSQTLSLTCSFSGFSLSTSGMGVGWIRQPSGKGLEWLAHIWWDDDEYYNPALKSRLTISKDTSKNQVFLKIANVDTADTATYYCARISIPYGYYDWFFDVWGTGTTVTVSA
VL: QAVVTQESALTTSPGETVTLTCRSSTGAVTTRNYANWVQEKPDHLFTGLIGGTNNRAPGVPARFSGSLIGDKAALTITGAQTEDEAIYFCALWYSNHFIFGSGTKVTVLG
notes: as for B4
B13: F1.105.11 (antibody, human IgG1, kappa, V domains shown)
VH: EVQLQQSGPVLVKPGASVKMSCKASGYTFSDYFMNWVKQSHGKSLEWIGIINSYSGGTSYNQKFKGKATLTVDKSSSTAYMELNSLTSEDSAVYYCARWMDYWGQGTSVTVSS
VL: DVQITQSPSYLAASPGETITINCRTSESISKHLAWYQEKPGKTNKLLIYSGSTLQSGIPSRFSGSGSGTDFTLTISSLEPEDFAMYYCQQHNEYPWTFGGGTKLEIKR
notes: as for B1
B14: F1.17.1 (antibody, human IgG1, kappa, V domains shown)
VH: QVQLKESGPGLVAPSQSLSITCTVSGFSLSRYTVHWVRQPPGKGLEWLGMIWGGGSTDYNSALKSRLSISKDNSKSQVFLKMNSLQTDDTAMYYCARPHDFDAGGFAYWGQGTLVTVSA
VL: QIVLTQSPAILSTSPGEKVTMTCSASSRVNYMYWYQQKPGSSPRLLIYDTSNLASGVPVRFSGSGSGTSYSLTISRMEAEDAATYYCQQWTSYPLTFGAGTKLELKR
notes: as for B1

What was measured:
[1] = biological target: T1, murine CD22 protein (ACROBiosystems, …); assay: ELISA, murine CD22-ECD-His coated
How it was run: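 Plates were coated overnight at 4° C with 2 μg/mL CD22 protein in PBS and blocked with PBS + 2% BSA. Chimeric antibodies were incubated for 2 h at 37° C, then HRP-labelled secondary for 2 h at 37° C. Bound antibody was read by TMB colour development (30 min, RT) stopped with 1.0 N HCl.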

[2] = biological target: T2, human CD22-ECD-His protein; assay: ELISA, Ab 0.01 nM
How it was run: (§1)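 Plates coated overnight at 4 °C with 2 μg/mL CD22-ECD-His and blocked with 2% BSA in PBS. Chimeric antibody bound at 37 °C for 2 h, followed by HRP-labeled secondary antibody at 37 °C for 2 h. TMB read-out developed 30 min at room temperature and stopped with 1.0 N HCl.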

[3] = biological target: T2, human CD22-ECD-His protein; assay: ELISA, Ab 0.10 nM
How it was run: as §1

Row | Binder | binding result [1] | OD450 [2] | OD450 [3]
1 | B1 | no binding (tested: 100 nM) | 1.92 OD450 | 2.38 OD450
2 | B2 | no binding (tested: 100 nM) | 2.48 OD450 | 2.55 OD450
3 | B3 | no binding (tested: 100 nM) | 2.3 OD450 | 2.57 OD450
4 | B4 | no binding (tested: 100 nM) | 1.3 OD450 | 2.03 OD450
5 | B5 | no binding (tested: 100 nM) | 1.66 OD450 | 2.49 OD450
6 | B6 | no binding (tested: 100 nM) | 2.12 OD450 | 2.57 OD450
7 | B7 | no binding (tested: 100 nM) | 2.28 OD450 | 2.63 OD450
8 | B8 | no binding (tested: 100 nM) | 2 OD450 | 2.4 OD450
9 | B9 | no binding (tested: 100 nM) | 2.21 OD450 | 2.37 OD450
10 | B10 | no binding (tested: 100 nM) | 1.56 OD450 | 1.86 OD450
11 | B11 | no binding (tested: 100 nM) | 1.7 OD450 | 1.94 OD450
12 | B12 | no binding (tested: 100 nM) | 1.48 OD450 | 2.1 OD450
13 | B13 | no binding (tested: 100 nM) | 1.93 OD450 | 2.52 OD450
14 | B14 | no binding (tested: 100 nM) | 1.85 OD450 | 2.41 OD450
